Test results published in patent US7186695.

Target: 70 kDa N-terminal fragment of fibronectin

B1: Recombinant human thioredoxin produced in E. coli (protein)
chain: MVKQIESKTAFQEALDAAGDKLVVVDFSATWCGPCKMIKPFFHSLSEKYSNVIFLEVDVDDCQDVASECEVKCMPTFQFFKKGQKVGEFSGANKEKLEATINELV
thioredoxin-mediated reduction of the fibronectin fragment (free thiols labelled with MPB, SDS-PAGE, streptavidin peroxidase blot): thioredoxin reduced one or more protein disulfide bonds in the 70 kDa N-terminal fragment of fibronectin
